B1: Azoarcus group I ribozyme (parent)
chain: GUGCCUUGCGCCGGGAAACCACGCAAGGGAUGGUGUCAAAUUCGGCGAAACCUAAGCGCCCGCCCGGGCGUAUGGCAACGCCGAGCCAAGCUUCGGCGCCUGCGCCGAUGAAGGUGUAGAGACUAGACGGCACCCACCUAAGGCAAACGCUAUGGUGAAGGCAUAGUCCAGGGAGUGGCGAAAGUCACACAAACCGG

Variants of: B1
Test: reverse-splicing fitness (ratio to wild type); higher = more active; in vitro selection; Mg2+ level not given
Procedure, shortened: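 An in vitro group I ribozyme library with randomized positions was T7-transcribed and gel-purified. In triplicate, 10 pmol RNA in EPPS pH 7.5 was reacted with 50 pmoles of a 30-nt RNA substrate for 1 h at 37 °C across several added MgCl2 levels (1–48 mM), then stopped with EDTA. Products were reverse transcribed from a substrate-complementary primer, PCR-amplified and sequenced (HiSeq 4000). Fitness is a variant's read proportion after selection over that before, normalised to wild type.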

Variant | reverse-splicing fitness
GUGCCUUGCGCCGGGAAACCACGCAAGGGAUGGUGUCAAAUUCGGCGAAACCUAAGCGCCCGCCCGGGCGUAUGGCAACGCUGAGCCAAGCUUCGGCGCCUGCGCCGAUGAAGGUGUAGCGACUAGACGGCACCCACCUAAGGCCAACGUUAUGGUGAAGGCAUAGUCAAGGGAGAGGCGAAAGUCACACAAACCGG | 0.00715
GUGCCUUGCGCCGGGAAACCACGCAAGGGAUGGUGUCAAAUUCGGCGAAACCUAAGCGCCCGCCCGGGCGUAUGGCAACGCUGAGCCAAGCUUCGGCGCCUGCGCCGAUGAAGGUGUAGCGACUAGACGGCACCCACCUAAGGCCAACGUUAUGGUGAAGGCAUAGUCAAGGGAGCGGCGAAAGUCACACAAACCGG | 0.00498
GUGCCUUGCGCCGGGAAACCACGCAAGGGAUGGUGUCAAAUUCGGCGAAACCUAAGCGCCCGCCCGGGCGUAUGGCAACGCUGAGCCAAGCUUCGGCGCCUGCGCCGAUGAAGGUGUAGCGACUAGACGGCACCCACCUAAGGCCAACGUUAUGGUGAAGGCAUAGUCAAGGGAGGGGCGAAAGUCACACAAACCGG | 0.00409
GUGCCUUGCGCCGGGAAACCACGCAAGGGAUGGUGUCAAAUUCGGCGAAACCUAAGCGCCCGCCCGGGCGUAUGGCAACGCUGAGCCAAGCUUCGGCGCCUGCGCCGAUGAAGGUGUAGCGACUAGACGGCACCCACCUAAGGCCAACGUUAUGGUGAAGGCAUAGUCGAGGGAGUGGCGAAAGUCACACAAACCGG | 0.00596
GUGCCUUGCGCCGGGAAACCACGCAAGGGAUGGUGUCAAAUUCGGCGAAACCUAAGCGCCCGCCCGGGCGUAUGGCAACGCUGAGCCAAGCUUCGGCGCCUGCGCCGAUGAAGGUGUAGCGACUAGACGGCACCCACCUAAGGCCAACGUUAUGGUGAAGGCAUAGUCGAGGGAGAGGCGAAAGUCACACAAACCGG | 0.0142
GUGCCUUGCGCCGGGAAACCACGCAAGGGAUGGUGUCAAAUUCGGCGAAACCUAAGCGCCCGCCCGGGCGUAUGGCAACGCUGAGCCAAGCUUCGGCGCCUGCGCCGAUGAAGGUGUAGCGACUAGACGGCACCCACCUAAGGCCAACGUUAUGGUGAAGGCAUAGUCGAGGGAGCGGCGAAAGUCACACAAACCGG | 0.00645
GUGCCUUGCGCCGGGAAACCACGCAAGGGAUGGUGUCAAAUUCGGCGAAACCUAAGCGCCCGCCCGGGCGUAUGGCAACGCUGAGCCAAGCUUCGGCGCCUGCGCCGAUGAAGGUGUAGCGACUAGACGGCACCCACCUAAGGCCAACGUUAUGGUGAAGGCAUAGUCGAGGGAGGGGCGAAAGUCACACAAACCGG | 0.00398
GUGCCUUGCGCCGGGAAACCACGCAAGGGAUGGUGUCAAAUUCGGCGAAACCUAAGCGCCCGCCCGGGCGUAUGGCAACGCUGAGCCAAGCUUCGGCGCCUGCGCCGAUGAAGGUGUAGCGACUAGACGGCACCCACCUAAGGCCAACGUUAUGGUGAAGGCAUAGUCUAGGGAGUGGCGAAAGUCACACAAACCGG | 0.0104
GUGCCUUGCGCCGGGAAACCACGCAAGGGAUGGUGUCAAAUUCGGCGAAACCUAAGCGCCCGCCCGGGCGUAUGGCAACGCUGAGCCAAGCUUCGGCGCCUGCGCCGAUGAAGGUGUAGCGACUAGACGGCACCCACCUAAGGCCAACGUUAUGGUGAAGGCAUAGUCUAGGGAGAGGCGAAAGUCACACAAACCGG | 0.0137
GUGCCUUGCGCCGGGAAACCACGCAAGGGAUGGUGUCAAAUUCGGCGAAACCUAAGCGCCCGCCCGGGCGUAUGGCAACGCUGAGCCAAGCUUCGGCGCCUGCGCCGAUGAAGGUGUAGCGACUAGACGGCACCCACCUAAGGCCAACGUUAUGGUGAAGGCAUAGUCUAGGGAGCGGCGAAAGUCACACAAACCGG | 0.0109
GUGCCUUGCGCCGGGAAACCACGCAAGGGAUGGUGUCAAAUUCGGCGAAACCUAAGCGCCCGCCCGGGCGUAUGGCAACGCUGAGCCAAGCUUCGGCGCCUGCGCCGAUGAAGGUGUAGCGACUAGACGGCACCCACCUAAGGCCAACGUUAUGGUGAAGGCAUAGUCUAGGGAGGGGCGAAAGUCACACAAACCGG | 0.00398
GUGCCUUGCGCCGGGAAACCACGCAAGGGAUGGUGUCAAAUUCGGCGAAACCUAAGCGCCCGCCCGGGCGUAUGGCAACGCUGAGCCAAGCUUCGGCGCCUGCGCCGAUGAAGGUGUAGCGACUAGACGGCACCCACCUAAGGCCAACGUUAUGGUGAAGGCAUAGUCCAGGGAGAGGCGAAAGUCACACAAACCGG | 0.0173
GUGCCUUGCGCCGGGAAACCACGCAAGGGAUGGUGUCAAAUUCGGCGAAACCUAAGCGCCCGCCCGGGCGUAUGGCAACGCUGAGCCAAGCUUCGGCGCCUGCGCCGAUGAAGGUGUAGCGACUAGACGGCACCCACCUAAGGCCAACGUUAUGGUGAAGGCAUAGUCCAGGGAGCGGCGAAAGUCACACAAACCGG | 0.0218
GUGCCUUGCGCCGGGAAACCACGCAAGGGAUGGUGUCAAAUUCGGCGAAACCUAAGCGCCCGCCCGGGCGUAUGGCAACGCUGAGCCAAGCUUCGGCGCCUGCGCCGAUGAAGGUGUAGCGACUAGACGGCACCCACCUAAGGCCAACGUUAUGGUGAAGGCAUAGUCCAGGGAGGGGCGAAAGUCACACAAACCGG | 0.00608
GUGCCUUGCGCCGGGAAACCACGCAAGGGAUGGUGUCAAAUUCGGCGAAACCUAAGCGCCCGCCCGGGCGUAUGGCAACGCUGAGCCAAGCUUCGGCGCCUGCGCCGAUGAAGGUGUAGCGACUAGACGGCACCCACCUAAGGCCAACGCUAUGGUGAAGGCAUAGUCAAGGGAGUGGCGAAAGUCACACAAACCGG | 0.00538
GUGCCUUGCGCCGGGAAACCACGCAAGGGAUGGUGUCAAAUUCGGCGAAACCUAAGCGCCCGCCCGGGCGUAUGGCAACGCUGAGCCAAGCUUCGGCGCCUGCGCCGAUGAAGGUGUAGCGACUAGACGGCACCCACCUAAGGCCAACGCUAUGGUGAAGGCAUAGUCAAGGGAGAGGCGAAAGUCACACAAACCGG | 0.00575
GUGCCUUGCGCCGGGAAACCACGCAAGGGAUGGUGUCAAAUUCGGCGAAACCUAAGCGCCCGCCCGGGCGUAUGGCAACGCUGAGCCAAGCUUCGGCGCCUGCGCCGAUGAAGGUGUAGCGACUAGACGGCACCCACCUAAGGCCAACGCUAUGGUGAAGGCAUAGUCAAGGGAGCGGCGAAAGUCACACAAACCGG | 0.00368
GUGCCUUGCGCCGGGAAACCACGCAAGGGAUGGUGUCAAAUUCGGCGAAACCUAAGCGCCCGCCCGGGCGUAUGGCAACGCUGAGCCAAGCUUCGGCGCCUGCGCCGAUGAAGGUGUAGCGACUAGACGGCACCCACCUAAGGCCAACGCUAUGGUGAAGGCAUAGUCAAGGGAGGGGCGAAAGUCACACAAACCGG | 0.00299
GUGCCUUGCGCCGGGAAACCACGCAAGGGAUGGUGUCAAAUUCGGCGAAACCUAAGCGCCCGCCCGGGCGUAUGGCAACGCUGAGCCAAGCUUCGGCGCCUGCGCCGAUGAAGGUGUAGCGACUAGACGGCACCCACCUAAGGCCAACGCUAUGGUGAAGGCAUAGUCGAGGGAGUGGCGAAAGUCACACAAACCGG | 0.00713
GUGCCUUGCGCCGGGAAACCACGCAAGGGAUGGUGUCAAAUUCGGCGAAACCUAAGCGCCCGCCCGGGCGUAUGGCAACGCUGAGCCAAGCUUCGGCGCCUGCGCCGAUGAAGGUGUAGCGACUAGACGGCACCCACCUAAGGCCAACGCUAUGGUGAAGGCAUAGUCGAGGGAGAGGCGAAAGUCACACAAACCGG | 0.0129
GUGCCUUGCGCCGGGAAACCACGCAAGGGAUGGUGUCAAAUUCGGCGAAACCUAAGCGCCCGCCCGGGCGUAUGGCAACGCUGAGCCAAGCUUCGGCGCCUGCGCCGAUGAAGGUGUAGCGACUAGACGGCACCCACCUAAGGCCAACGCUAUGGUGAAGGCAUAGUCGAGGGAGCGGCGAAAGUCACACAAACCGG | 0.00783
GUGCCUUGCGCCGGGAAACCACGCAAGGGAUGGUGUCAAAUUCGGCGAAACCUAAGCGCCCGCCCGGGCGUAUGGCAACGCUGAGCCAAGCUUCGGCGCCUGCGCCGAUGAAGGUGUAGCGACUAGACGGCACCCACCUAAGGCCAACGCUAUGGUGAAGGCAUAGUCGAGGGAGGGGCGAAAGUCACACAAACCGG | 0.00341
GUGCCUUGCGCCGGGAAACCACGCAAGGGAUGGUGUCAAAUUCGGCGAAACCUAAGCGCCCGCCCGGGCGUAUGGCAACGCUGAGCCAAGCUUCGGCGCCUGCGCCGAUGAAGGUGUAGCGACUAGACGGCACCCACCUAAGGCCAACGCUAUGGUGAAGGCAUAGUCUAGGGAGUGGCGAAAGUCACACAAACCGG | 0.0225
GUGCCUUGCGCCGGGAAACCACGCAAGGGAUGGUGUCAAAUUCGGCGAAACCUAAGCGCCCGCCCGGGCGUAUGGCAACGCUGAGCCAAGCUUCGGCGCCUGCGCCGAUGAAGGUGUAGCGACUAGACGGCACCCACCUAAGGCCAACGCUAUGGUGAAGGCAUAGUCUAGGGAGAGGCGAAAGUCACACAAACCGG | 0.0191
GUGCCUUGCGCCGGGAAACCACGCAAGGGAUGGUGUCAAAUUCGGCGAAACCUAAGCGCCCGCCCGGGCGUAUGGCAACGCUGAGCCAAGCUUCGGCGCCUGCGCCGAUGAAGGUGUAGCGACUAGACGGCACCCACCUAAGGCCAACGCUAUGGUGAAGGCAUAGUCUAGGGAGCGGCGAAAGUCACACAAACCGG | 0.0127
GUGCCUUGCGCCGGGAAACCACGCAAGGGAUGGUGUCAAAUUCGGCGAAACCUAAGCGCCCGCCCGGGCGUAUGGCAACGCUGAGCCAAGCUUCGGCGCCUGCGCCGAUGAAGGUGUAGCGACUAGACGGCACCCACCUAAGGCCAACGCUAUGGUGAAGGCAUAGUCUAGGGAGGGGCGAAAGUCACACAAACCGG | 0.00368
GUGCCUUGCGCCGGGAAACCACGCAAGGGAUGGUGUCAAAUUCGGCGAAACCUAAGCGCCCGCCCGGGCGUAUGGCAACGCUGAGCCAAGCUUCGGCGCCUGCGCCGAUGAAGGUGUAGCGACUAGACGGCACCCACCUAAGGCCAACGCUAUGGUGAAGGCAUAGUCCAGGGAGAGGCGAAAGUCACACAAACCGG | 0.0438
GUGCCUUGCGCCGGGAAACCACGCAAGGGAUGGUGUCAAAUUCGGCGAAACCUAAGCGCCCGCCCGGGCGUAUGGCAACGCUGAGCCAAGCUUCGGCGCCUGCGCCGAUGAAGGUGUAGCGACUAGACGGCACCCACCUAAGGCCAACGCUAUGGUGAAGGCAUAGUCCAGGGAGCGGCGAAAGUCACACAAACCGG | 0.0651
GUGCCUUGCGCCGGGAAACCACGCAAGGGAUGGUGUCAAAUUCGGCGAAACCUAAGCGCCCGCCCGGGCGUAUGGCAACGCUGAGCCAAGCUUCGGCGCCUGCGCCGAUGAAGGUGUAGCGACUAGACGGCACCCACCUAAGGCCAACGCUAUGGUGAAGGCAUAGUCCAGGGAGGGGCGAAAGUCACACAAACCGG | 0.00964
GUGCCUUGCGCCGGGAAACCACGCAAGGGAUGGUGUCAAAUUCGGCGAAACCUAAGCGCCCGCCCGGGCGUAUGGCAACGCUGAGCCAAGCUUCGGCGCCUGCGCCGAUGAAGGUGUAGCGACUAGACGGCACCCACCUAAGGCGAACGCUAUGGUGAAGGCAUAGUCCAGGGAGUGGCGAAAGUCACACAAACCGG | 0.169
